Assay results from the Immune Epitope Database (IEDB).

How the values were obtained:
Experiment in all cases: IEDB peptide-MHC binding, purified MHC/competitive/radioactivity; filed as Kd, often an IC50 or EC50 that approximates it; ≥ and ≤ were set here for values at or beyond the usual limits of such assays
Conditions in all cases: source organism: Toxoplasma gondii
[1] = molecular target: HLA-A*30:01
[2] = molecular target: HLA-A*68:01
[3] = molecular target: HLA-A*33:01
[4] = molecular target: HLA-A*03:01
[5] = molecular target: HLA-A*31:01

Sequence	Kd [1] [nM]	Kd [2] [nM]	Kd [3] [nM]	Kd [4] [nM]	Kd [5] [nM]
AVVSLLRLLK	8.1	94	1100	17	1300
STFWPCLLR	1270	0.97	3.4	22	1.2
